± gives the uncertainty stated by the source.

39 sequences from the supplement of paper PMC7877785 can be followed below.

This series is described as follows: self-splicing fitness, log relative to wild type (ln ratio); higher = more splicing; Tetrahymena group I intron in knt gene, E. coli kanamycin selection, DiMSum; sequences stand for … in CUCUCU…GGAGGGAAAAGUUAUCAGGCAUGCACCUGGUAGCUAGUCUUUAAACCAAUAGAUUGCAUCGGUUUAAAAGGCAAGACCGUCAAAUUGCGGGAAAGGGGUCAACAGCCGUUCAGUACCAAGUCUCAGGGGAAACUUUGAGAUGGCCUUGCAAAGGGUAUGGUAAUAAGCUGACGGACAUGGUCCUAACCACGCAGCCAAGUCCUAAGUCAACAGAUCUUCUGUUGAUAUGGAUGCAGUUCACAGACUAAAUGUCGGUCGGGGAAGAUGUAUUCUUCUCAUAAGAUAUAGUCGGACCUCUCCUUAAUGGGAGCUAGCGGAUGAAGUGAUGCAACACUGGAGCCGCUGGGAACUAAUUUGUAUGCGAAAGUAUAUUGAUUAGUUUUGGAGUACUCGUGGUCG
In short, it runs like this:
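Library with all eight P1ex-region intron nucleotides randomised, intron inside the knt kanamycin-resistance gene on pET-22b(+), in E. coli BL21(DE3). Cells grew overnight at 37°C or 30°C on LB agar with or without 25 μg/mL kanamycin (plus 100 μg/mL carbenicillin, 50 μM IPTG, 0.2% rhamnose), in six replicate transformations. Pooled colonies were amplicon-sequenced on Illumina HiSeq 2500. DiMSum fitness is the error-weighted combination of wild-type-normalised replicate fold changes, kanamycin versus none.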

As to AUACAGCAAUAUUACGACGC, the “self-splicing fitness (ln)” value is, setting by setting: (30 °C) -0.948 ± 0.13; (37 °C) 0.227 ± 0.16.

As for GUUGAGCAAUAUUACGCUAC, for the setting “30 °C”, the “self-splicing fitness (ln)” value was -1.28 ± 0.49. Consider CCCAAGCAAUAUUACGGACC, for which the “self-splicing fitness (ln)” value is, setting by setting: (30 °C) -2.96 ± 0.18; (37 °C) -2.29 ± 0.26. For the sequence UAGAAGCAAUAUUACGCCUG, the “self-splicing fitness (ln)” value reads like this: (30 °C) -0.128 ± 0.091; (37 °C) 0.251 ± 0.12. The matching figures for ACGCAGCAAUAUUACGCGCU: -2.24 ± 0.17 and -1.31 ± 0.14.

Take CUCGAGCAAUAUUACGAAGC: the “self-splicing fitness (ln)” value is -3.7 ± 0.16 (30 °C) and -3.28 ± 0.21 (37 °C). As for GGGCAGCAAUAUUACGAUUG, the “self-splicing fitness (ln)” value by setting is: (30 °C) -3.83 ± 0.4; (37 °C) -2.84 ± 0.27. On to CUAUAGCAAUAUUACGUAGA, for which the “self-splicing fitness (ln)” value runs as follows: (30 °C) -3.52 ± 0.33; (37 °C) -1.87 ± 0.34. On the same counts, the results for UGGAAGCAAUAUUACGUCGU are -2.12 ± 0.18 and -2.19 ± 0.25. On the same counts, the results for ACUUAGCAAUAUUACGAAUC are -3.59 ± 0.23 and -0.386 ± 0.23.

On to GUCGAGCAAUAUUACGCGAG, for which the “self-splicing fitness (ln)” value was -0.678 ± 0.096 (30 °C) and -0.901 ± 0.12 (37 °C).

AUGAAGCAAUAUUACGUACA: the “self-splicing fitness (ln)” value runs as follows: (30 °C) -0.369 ± 0.083; (37 °C) -0.631 ± 0.089. In the case of CGUAAGCAAUAUUACGCCAU, the “self-splicing fitness (ln)” value reads like this: (30 °C) -3.78 ± 0.24; (37 °C) -2.7 ± 0.23. The matching figures for CGCAAGCAAUAUUACGAUUU: -2.45 ± 0.16 and -2.33 ± 0.18.

On to CAUCAGCAAUAUUACGGUGC, for which the “self-splicing fitness (ln)” value is -3.55 ± 0.43 (30 °C) and -3.74 ± 0.46 (37 °C). ACCAAGCAAUAUUACGAGAC: the “self-splicing fitness (ln)” value (30 °C) was -3.68 ± 0.18 and the “self-splicing fitness (ln)” value (37 °C) was -2.86 ± 0.21. Take GUAGAGCAAUAUUACGGGUA: the “self-splicing fitness (ln)” value is, setting by setting: (30 °C) -4.17 ± 0.35; (37 °C) -1.75 ± 0.19. On the same counts, the results for AUAGAGCAAUAUUACGGUUC are -3.21 ± 0.24 and -1.29 ± 0.22. Take UAUUAGCAAUAUUACGCCAG: the “self-splicing fitness (ln)” value (30 °C) is -1.17 ± 0.28.

As for ACCUAGCAAUAUUACGCGUC, the “self-splicing fitness (ln)” value is, setting by setting: (30 °C) -2.91 ± 0.27; (37 °C) -0.412 ± 0.14. With UGCUAGCAAUAUUACGCGCA, the “self-splicing fitness (ln)” value (30 °C) is -1.97 ± 0.23 and the “self-splicing fitness (ln)” value (37 °C) was -0.803 ± 0.2.

For CAAUAGCAAUAUUACGGAUG, the “self-splicing fitness (ln)” value was -1.51 ± 0.08 (30 °C) and -1.12 ± 0.088 (37 °C).

For GUCGAGCAAUAUUACGAAAU, for the setting “37 °C”, the “self-splicing fitness (ln)” value is -1.29 ± 0.49. With CUUUAGCAAUAUUACGGAAU, the “self-splicing fitness (ln)” value runs as follows: (30 °C) -1.75 ± 0.23; (37 °C) -1.73 ± 0.36.

Take CUGGAGCAAUAUUACGUCAG: the “self-splicing fitness (ln)” value (30 °C) was -4.05 ± 0.46 and the “self-splicing fitness (ln)” value (37 °C) was -2.59 ± 0.29.

Take ACACAGCAAUAUUACGACGA: the “self-splicing fitness (ln)” value is -0.721 ± 0.074 (30 °C) and -0.406 ± 0.081 (37 °C).

As to CUGCAGCAAUAUUACGAGUA, the “self-splicing fitness (ln)” value is -2.85 ± 0.23 (30 °C) and -2.97 ± 0.28 (37 °C). On the same counts, the results for AGAGAGCAAUAUUACGUGCG are -1.98 ± 0.16 and -1.79 ± 0.26. As to GUUAAGCAAUAUUACGGCGU, the “self-splicing fitness (ln)” value reads like this: (30 °C) -0.0268 ± 0.076; (37 °C) -0.00868 ± 0.094. On to AAUUAGCAAUAUUACGAGUU, for which the “self-splicing fitness (ln)” value was -1.48 ± 0.12 (30 °C) and -1.28 ± 0.15 (37 °C). For UAGGAGCAAUAUUACGAGAC, the “self-splicing fitness (ln)” value (30 °C) was -2.26 ± 0.29. For the sequence UCACAGCAAUAUUACGAAAC, the “self-splicing fitness (ln)” value was -3.36 ± 0.37 (30 °C) and -2.7 ± 0.25 (37 °C). For UACCAGCAAUAUUACGGGAU, the “self-splicing fitness (ln)” value runs as follows: (30 °C) -3.25 ± 0.16; (37 °C) -1.53 ± 0.12. With ACGGAGCAAUAUUACGUAGC, where the note is “37 °C”, the “self-splicing fitness (ln)” value was -1.64 ± 0.21. On to ACGAAGCAAUAUUACGUCAA, for which the “self-splicing fitness (ln)” value is -3.35 ± 0.17 (30 °C) and -3.51 ± 0.22 (37 °C).

Regarding AUACAGCAAUAUUACGACAU, the “self-splicing fitness (ln)” value is, setting by setting: (30 °C) 0.131 ± 0.011; (37 °C) 0.288 ± 0.032.

Consider AUCAAGCAAUAUUACGAGUU, for which the “self-splicing fitness (ln)” value is -1.57 ± 0.081 (30 °C) and -1.42 ± 0.097 (37 °C).

As to UGAUAGCAAUAUUACGACAG, the “self-splicing fitness (ln)” value by setting is: (30 °C) -1.41 ± 0.11; (37 °C) -1.59 ± 0.1. For CAGAAGCAAUAUUACGGGGG, the “self-splicing fitness (ln)” value runs as follows: (30 °C) -3.09 ± 0.16; (37 °C) -2.75 ± 0.21.
